Experimental data published in patent US20180030149A1 (AVEO PHARMACEUTICALS, published 2018).

B1: Sh24C05-1 (antibody, human IgG1, kappa)
heavy: not shown
light: DIQMTQSPSSLSASLGERVSLTCRASQEISGYLSWLQQKPDGTIKRLIYAASTLDSGVPKRFSGSRSGSDYSLTIGSLESEDLADYYCLQYDSYPYTFGGGTKLEIKRTVAAPSVFIFPPSDEQLKSGTASVVCLLNNFYPREAKVQWKVDNALQSGNSQESVTEQDSKDSTYSLSSTLTLSKADYEKHKVYACEVTHQGLSSPVTKSFNRGEC
notes: Chimeric: mouse 24C05 variable regions, human IgG1/kappa constant regions; also called Chimeric 24C05
B2: Sh24C05-25 (antibody, human IgG1, kappa, V domains shown)
VH: QVQLVESGGGLVKPGGSLRLSCAASGFTFSDYAMSWIRQAPGKGLEWVSTISDGGTYTYYPDNVKGRFTISRDNAKNSLYLQMNSLRAEDTAVYYCAREWGDYDGFDYWGQGTLVTVSS
VL: DIQMTQSPSSLSASVGDRVTITCRASQEISGYLSWFQQKPGKAPKSLIYAASTLDSGVPSRFSGSGSGTDFTLTISSLQPEDFATYYCLQYDSYPYTFGQGTKLEIKR
notes: Humanized, human IgG1/kappa
B3: Sh24C05-17 (antibody, human IgG1, kappa, V domains shown)
VH: QVQLVESGGGVVQPGRSLRLSCAASGFTFSDYAMSWVRQAPGKGLEWVATISDGGTYTYYPDNVKGRFTISRDNSKNTLYLQMSSLRAEDTAVYYCAREWGDYDGFDYWGQGTLVTVSS
VL: DIQMTQSPSSLSASVGDRVTITCRASQEISGYLSWLQQKPGGAIKRLIYAASTLDSGVPSRFSGSGSGSDYTLTISSLQPEDFATYYCLQYDSYPYTFGQGTKLEIKR
notes: Humanized, human IgG1/kappa
B4: Sh24C05-39 (antibody, human IgG1, kappa, V domains shown)
VH: EVQLVESGGGLVKPGGSLRLSCAASGFTFSDYAMSWVRQAPGKGLEWVSTISDGGTYTYYPDNVKGRFTISRDNAKNSLYLQMNSLRAEDTAVYYCAREWGDYDGFDYWGQGTLVTVSS
VL: DIQLTQSPSFLSASVGDRVTITCRASQEISGYLSWYQQKPGKAPKLLIYAASTLDSGVPSRFSGSGSGTEFTLTISSLQPEDFATYYCLQYDSYPYTFGQGTKLEIKR
notes: Humanized, human IgG1/kappa
B5: Sh24C05-47 (antibody, human IgG1, kappa, V domains shown)
VH: QVQLVESGGGVVQPGRSLRLSCAASGFTFSDYAMSWVRQAPGKGLEWVATISDGGTYTYYPDNVKGRFTISRDNSKNTLYLQMSSLRAEDTAVYYCAREWGDYDGFDYWGQGTLVTVSS
VL: DIQMTQSPSSLSASVGDRVTITCRASQEISGYLSWYQQKPGKAPKLLIYAASTLDSGVPSRFSGSGSGTDFTLTISSLQPEDFATYYCLQYDSYPYTFGQGTKLEIKR
notes: Humanized, human IgG1/kappa
B6: Sh24C05-40 (antibody, human IgG1, kappa, V domains shown)
VH: EVQLLESGGGLVQPGGSLRLSCAASGFTFSDYAMSWVRQAPGKGLEWVSTISDGGTYTYYPDNVKGRFTISRDNSKNTLYLQMNSLRAEDTAVYYCAREWGDYDGFDYWGQGTLVTVSS
VL: DIQLTQSPSFLSASVGDRVTITCRASQEISGYLSWYQQKPGKAPKLLIYAASTLDSGVPSRFSGSGSGTEFTLTISSLQPEDFATYYCLQYDSYPYTFGQGTKLEIKR
notes: Humanized, human IgG1/kappa
B7: Sh24C05-41 (antibody, human IgG1, kappa, V domains shown)
VH: QVQLVESGGGVVQPGRSLRLSCAASGFTFSDYAMSWVRQAPGKGLEWVATISDGGTYTYYPDNVKGRFTISRDNSKNTLYLQMSSLRAEDTAVYYCAREWGDYDGFDYWGQGTLVTVSS
VL: DIQLTQSPSFLSASVGDRVTITCRASQEISGYLSWYQQKPGKAPKLLIYAASTLDSGVPSRFSGSGSGTEFTLTISSLQPEDFATYYCLQYDSYPYTFGQGTKLEIKR
notes: Humanized, human IgG1/kappa
B8: Sh24C05-42 (antibody, human IgG1, kappa)
heavy: not shown
light: DIQLTQSPSFLSASVGDRVTITCRASQEISGYLSWYQQKPGKAPKLLIYAASTLDSGVPSRFSGSGSGTEFTLTISSLQPEDFATYYCLQYDSYPYTFGQGTKLEIKRTVAAPSVFIFPPSDEQLKSGTASVVCLLNNFYPREAKVQWKVDNALQSGNSQESVTEQDSKDSTYSLSSTLTLSKADYEKHKVYACEVTHQGLSSPVTKSFNRGEC
notes: Humanized, human IgG1/kappa
B9: Sh24C05-43 (antibody, human IgG1, kappa, V domains shown)
VH: QVQLVESGGGLVKPGGSLRLSCAASGFTFSDYAMSWIRQAPGKGLEWVSTISDGGTYTYYPDNVKGRFTISRDNAKNSLYLQMNSLRAEDTAVYYCAREWGDYDGFDYWGQGTLVTVSS
VL: DIQLTQSPSFLSASVGDRVTITCRASQEISGYLSWYQQKPGKAPKLLIYAASTLDSGVPSRFSGSGSGTEFTLTISSLQPEDFATYYCLQYDSYPYTFGQGTKLEIKR
notes: Humanized, human IgG1/kappa
B10: Sh24C05-38 (antibody, human IgG1, kappa)
heavy: not shown
light: DIQLTQSPSFLSASVGDRVTITCRASQEISGYLSWYQQKPGKAPKLLIYAASTLDSGVPSRFSGSGSGTEFTLTISSLQPEDFATYYCLQYDSYPYTFGQGTKLEIKRTVAAPSVFIFPPSDEQLKSGTASVVCLLNNFYPREAKVQWKVDNALQSGNSQESVTEQDSKDSTYSLSSTLTLSKADYEKHKVYACEVTHQGLSSPVTKSFNRGEC
notes: Humanized, human IgG1/kappa
B11: Sh24C05-37 (antibody, human IgG1, kappa, V domains shown)
VH: QVQLVESGGGLVKPGGSLRLSCAASGFTFSDYAMSWIRQAPGKGLEWVSTISDGGTYTYYPDNVKGRFTISRDNAKNSLYLQMNSLRAEDTAVYYCAREWGDYDGFDYWGQGTLVTVSS
VL: DIQMTQSPSSLSASVGDRVTITCRASQEISGYLSWYQQKPGKAPKLLIYAASTLDSGVPSRFSGSGSGTDFTFTISSLQPEDIATYYCLQYDSYPYTFGQGTKLEIKR
notes: Humanized, human IgG1/kappa
B12: Sh24C05-49 (antibody, human IgG1, kappa, V domains shown)
VH: QVQLVESGGGLVKPGGSLRLSCAASGFTFSDYAMSWIRQAPGKGLEWVSTISDGGTYTYYPDNVKGRFTISRDNAKNSLYLQMNSLRAEDTAVYYCAREWGDYDGFDYWGQGTLVTVSS
VL: DIQMTQSPSSLSASVGDRVTITCRASQEISGYLSWYQQKPGKAPKLLIYAASTLDSGVPSRFSGSGSGTDFTLTISSLQPEDFATYYCLQYDSYPYTFGQGTKLEIKR
notes: Humanized, human IgG1/kappa
B13: Sh24C05-31 (antibody, human IgG1, kappa, V domains shown)
VH: QVQLVESGGGLVKPGGSLRLSCAASGFTFSDYAMSWIRQAPGKGLEWVSTISDGGTYTYYPDNVKGRFTISRDNAKNSLYLQMNSLRAEDTAVYYCAREWGDYDGFDYWGQGTLVTVSS
VL: DIQMTQSPSSLSASVGDRVTITCRASQEISGYLSWYQQKPGKAPKRLIYAASTLDSGVPSRFSGSGSGTEFTLTISSLQPEDFATYYCLQYDSYPYTFGQGTKLEIKR
notes: Humanized, human IgG1/kappa
B14: Sh24C05-48 (antibody, human IgG1, kappa)
heavy: not shown
light: DIQMTQSPSSLSASVGDRVTITCRASQEISGYLSWYQQKPGKAPKLLIYAASTLDSGVPSRFSGSGSGTDFTLTISSLQPEDFATYYCLQYDSYPYTFGQGTKLEIKRTVAAPSVFIFPPSDEQLKSGTASVVCLLNNFYPREAKVQWKVDNALQSGNSQESVTEQDSKDSTYSLSSTLTLSKADYEKHKVYACEVTHQGLSSPVTKSFNRGEC
notes: Humanized, human IgG1/kappa
B15: Sh24C05-44 (antibody, human IgG1, kappa)
heavy: not shown
light: DIQMTQSPSSLSASVGDRVTITCRASQEISGYLSWYQQKPGKAPKLLIYAASTLDSGVPSRFSGSGSGTDFTLTISSLQPEDFATYYCLQYDSYPYTFGQGTKLEIKRTVAAPSVFIFPPSDEQLKSGTASVVCLLNNFYPREAKVQWKVDNALQSGNSQESVTEQDSKDSTYSLSSTLTLSKADYEKHKVYACEVTHQGLSSPVTKSFNRGEC
notes: Humanized, human IgG1/kappa
B16: Sh24C05-46 (antibody, human IgG1, kappa, V domains shown)
VH: EVQLLESGGGLVQPGGSLRLSCAASGFTFSDYAMSWVRQAPGKGLEWVSTISDGGTYTYYPDNVKGRFTISRDNSKNTLYLQMNSLRAEDTAVYYCAREWGDYDGFDYWGQGTLVTVSS
VL: DIQMTQSPSSLSASVGDRVTITCRASQEISGYLSWYQQKPGKAPKLLIYAASTLDSGVPSRFSGSGSGTDFTLTISSLQPEDFATYYCLQYDSYPYTFGQGTKLEIKR
notes: Humanized, human IgG1/kappa

What was measured:
[1] = biological target: T1, recombinant human ErbB3 monomeric protein (cleaved rhErbB3) (human, UniProt P21860 20-643, limits assumed); assay: SPR Biacore 37 C; supernatant antibody captured on anti-human Fc, cleaved rhErbB3 injected
T1 construct: Monomer made by protease cleavage of the Fc fusion; also called Monomeric ErbB3
Procedure: (§1) The analyses were performed at 37° C. using PBS (Invitrogen, Catalog No. 14040-133) containing 0.05% surfactant P20 (Biacore, Catalog No. BR-1000-54) as running buffer.
(§2) The antibodies were captured in individual flow cells at a flow rate of […]. Injection time was varied for each antibody to yield an Rₘₐₓ between 30 and 60 RU. […] The dissociation phase was monitored for up to 1200 seconds. The surface was then regenerated with two 60 second injections of Glycine pH 2.25 (made from Glycine pH 2.0 (Biacore, Catalog No. BR-1003-55) and pH 2.5 (Biacore, Catalog No. BR-1003-56)) at […].
Kinetic parameters were determined using the kinetic function of the BIAevaluation software (Biacore) with double reference subtraction. Kinetic parameters for each antibody, kₐ (association rate constant), kd (dissociation rate constant) and KD (equilibrium dissociation constant) were determined.

[2] = biological target: T1, recombinant human ErbB3 monomeric …; assay: SPR Biacore 37 C; purified antibody captured on anti-human Fc, cleaved rhErbB3 0.3125-5.0 nM
Procedure: as §1, §2
The binding affinities and kinetics of certain purified monoclonal antibodies were also determined. To further characterize certain antibodies, the surface plasmon resonance experiments described above were conducted using concentrations of cleaved rhErbB3 between 0.3125 nM and 5.0 nM (a 2-fold serial dilution).

Row | Binder | Kd [1] | koff [1] | kon [1] | Kd [2] | koff [2] | kon [2]
1 | B1 | 0.178 nM | 0.000448 s⁻¹ | 2.52e+06 M⁻¹ s⁻¹ | 0.14 nM | 0.00044 s⁻¹ | 3.5e+06 M⁻¹ s⁻¹
2 | B2 | 0.175 nM | 0.000459 s⁻¹ | 2.63e+06 M⁻¹ s⁻¹ | 0.13 nM | 0.0005 s⁻¹ | 4e+06 M⁻¹ s⁻¹
3 | B3 | 0.15 nM | 0.000417 s⁻¹ | 2.79e+06 M⁻¹ s⁻¹ |  |  | 
4 | B4 | 0.819 nM | 0.00967 s⁻¹ | 1.18e+07 M⁻¹ s⁻¹ |  |  | 
5 | B5 | 0.553 nM | 0.00441 s⁻¹ | 7.98e+06 M⁻¹ s⁻¹ |  |  | 
6 | B6 | 0.503 nM | 0.0106 s⁻¹ | 2.11e+07 M⁻¹ s⁻¹ |  |  | 
7 | B7 | 0.669 nM | 0.0121 s⁻¹ | 1.81e+07 M⁻¹ s⁻¹ |  |  | 
8 | B8 | 0.927 nM | 0.00682 s⁻¹ | 7.35e+06 M⁻¹ s⁻¹ |  |  | 
9 | B9 | 0.582 nM | 0.00358 s⁻¹ | 6.16e+06 M⁻¹ s⁻¹ |  |  | 
10 | B10 | 0.567 nM | 0.0154 s⁻¹ | 2.71e+07 M⁻¹ s⁻¹ |  |  | 
11 | B11 | 0.374 nM | 0.002 s⁻¹ | 5.94e+06 M⁻¹ s⁻¹ |  |  | 
12 | B12 | 0.416 nM | 0.0017 s⁻¹ | 4.08e+06 M⁻¹ s⁻¹ |  |  | 
13 | B13 | 0.0865 nM | 0.000292 s⁻¹ | 3.47e+06 M⁻¹ s⁻¹ | 0.063 nM | 0.00028 s⁻¹ | 4.7e+06 M⁻¹ s⁻¹
14 | B14 | 0.562 nM | 0.0049 s⁻¹ | 8.72e+06 M⁻¹ s⁻¹ |  |  | 
15 | B15 | 0.644 nM | 0.00512 s⁻¹ | 7.96e+06 M⁻¹ s⁻¹ |  |  | 
16 | B16 | 0.551 nM | 0.0044 s⁻¹ | 7.99e+06 M⁻¹ s⁻¹ |  |  | 
